From patent US20060239990A1, “Protein Arginine N-Methyltransferase 2 (PRMT-2)” (priority 2003, published 2006)

T1: RB (Homo sapiens, UniProt P06400)
T1 construct: coding region of RB cDNA was subcloned into pGEX-6P (Amersham/Pharmacia) for generation of GST-RB; made in house
T1 sequence (P06400 1-928): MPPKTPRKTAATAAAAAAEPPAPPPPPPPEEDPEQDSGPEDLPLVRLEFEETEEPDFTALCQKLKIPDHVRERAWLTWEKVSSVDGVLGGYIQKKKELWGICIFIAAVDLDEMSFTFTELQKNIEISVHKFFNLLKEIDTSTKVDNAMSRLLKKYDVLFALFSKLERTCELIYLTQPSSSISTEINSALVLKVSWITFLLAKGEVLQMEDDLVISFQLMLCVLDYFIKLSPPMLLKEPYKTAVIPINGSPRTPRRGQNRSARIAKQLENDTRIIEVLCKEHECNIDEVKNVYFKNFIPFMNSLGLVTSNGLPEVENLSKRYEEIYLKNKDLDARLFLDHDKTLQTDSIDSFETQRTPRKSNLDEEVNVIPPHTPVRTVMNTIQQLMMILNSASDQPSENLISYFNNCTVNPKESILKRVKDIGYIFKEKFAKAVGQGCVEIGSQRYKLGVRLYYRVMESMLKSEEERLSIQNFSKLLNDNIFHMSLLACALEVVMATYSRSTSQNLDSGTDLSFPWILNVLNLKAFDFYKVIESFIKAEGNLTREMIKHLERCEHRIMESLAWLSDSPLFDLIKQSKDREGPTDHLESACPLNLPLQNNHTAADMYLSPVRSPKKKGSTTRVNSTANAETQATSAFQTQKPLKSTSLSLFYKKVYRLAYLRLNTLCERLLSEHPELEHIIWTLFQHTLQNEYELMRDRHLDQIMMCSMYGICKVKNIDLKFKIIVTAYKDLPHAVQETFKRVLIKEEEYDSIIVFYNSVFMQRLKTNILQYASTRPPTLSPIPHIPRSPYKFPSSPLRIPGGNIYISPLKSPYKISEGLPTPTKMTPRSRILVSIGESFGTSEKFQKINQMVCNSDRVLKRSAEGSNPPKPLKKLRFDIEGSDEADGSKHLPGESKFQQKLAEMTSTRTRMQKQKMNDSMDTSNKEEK

B1: PRMT2(1-218): deletion mutant lacking the C-terminal domain, retains SH3 domain and a large part of the AdoMet binding domain (protein)
chain: MATSGDCPRSESQGEEPAECSEAGLLQEGVQPEEFVAIADYAATDETQLSFLRGEKILILRQTTADWWWGERAGCCGYIPANHVGKHVDEYDPEDTWQDEEYFGSYGTLKLHLEMLADQPRTTKYHSVILQNKESLTDKVILDVGCGTGIISLFCAHYARPRAVYAVEASEMAQHTGQLVLQNGFADIITVYQQKVEDVVLPEKVDVLVSEWMGTCLL
B2: PRMT2(1-95): deletion mutant lacking the C-terminal and AdoMet binding domains, retains the SH3 domain (protein)
chain: MATSGDCPRSESQGEEPAECSEAGLLQEGVQPEEFVAIADYAATDETQLSFLRGEKILILRQTTADWWWGERAGCCGYIPANHVGKHVDEYDPED
B3: PRMT2-4A: amino acids 141-144 (ILDV) in the Ado-Met domain altered to four consecutive alanines, SEQ ID NO:6 (protein)
chain: MATSGDCPRSESQGEEPAECSEAGLLQEGVQPEEFVAIADYAATDETQLSFLRGEKILILRQTTADWWWGERAGCCGYIPANHVGKHVDEYDPEDTWQDEEYFGSYGTLKLHLEMLADQPRTTKYHSVILQNKESLTDKVAAAAGCGTGIISLFCAHYARPRAVYAVEASEMAQHTGQLVLQNGFADIITVYQQKVEDVVLPEKVDVLVSEWMGTCLLFEFMIESILYARDAWLKEDGVIWPTMAALHLVPCSADKDYRSKVLFWDNAYEFNLSALKSLAVKEFFSKPKYNHILKPEDCLSEPCTILQLDMRTVQISDLETLRGELRFDIRKAGTLHGFTAWFSVHFQSLQEGQPPQVLSTGPFHPTTHWKQTLFMMDDPVPVHTGDVVTGSVVLQRNPVWRRHMSVALSWAVTSRQDPTSQKVGEKVFPIWR
modifications: A synthetic PRMT-2-4A mutant polypeptide
B4: PRMT3: human protein arginine methyltransferase 3, expression construct (protein)
chain: CSLASGATGGRGAVENEEDLPELSDSGDEAAWEDEDDADLPHGKQQTPCLFCNRLFTSAEETFSHCKSEHQFNIDSMVHKHGLEFYGYIKLINFIRLKNPTVEYMNSIYNPVPWEKEEYLKPVLEDDLLLQFDVEDLYEPVSVPFSYPNGLSENTSVVEKLKHMEARALSAEAALARAREDLQKMKQFAQDFVMHTDVRTCSSSTSVIADLQEDEDGVYFSSYGHYGIHEEMLKDKIRTESYRDFIYQNPHIFKDKVVLDVGCGTGILSMFAAKAGAKKVLGVDQSEILYQAMDIIRLNKLEDTITLIKGKIEEVHLPVEKVDVIISEWMGYFLLFESMLDSVLYAKNKYLAKGGSVYPDICTISLVAVSDVNKHADRIAFWDDVYGFKMSCMKKAVIPEAVVEVLDPKTLISEPCGIKHIDCHTTSISDLEFSSDFTLKITRTSMCTAIAGYFDIYFEKNCHNRVVFSTGPQSTKTHWKQTVFLLEKPFSVKAGEALKGKVTVHKNKKDPRSLTVTLTLNNSTQTYGLQ

Key:
RB = target: T1, RB; experiment: In vitro binding assay with GST-RB; settings: S35-labeled in vitro translated protein
Description: The crude cell lysate of the GST-fusion proteins was prepared and purified according to the manufacture's protocol (Amersham/Pharmacia). [^35S]-methionine-labeled protein was produced by in vitro transcription/translation using the TNT T7-coupled reticulocyte lysate system (Promega). [^35S]-methionine-labeled protein and GST-fusion protein bound to glutathione sepharose 4B beads were incubated in 500 μl of HNE buffer (50 mM Hepes, pH 7.8, 150 mM NaCl, 1 mM EDTA, 1 mM DTT, 1% NP40, and 1× protease inhibitor mix (Complete: Roche)) at 4° C. for 1 hour. Beads were washed four times with HNE buffer, and then analyzed on an SDS-PAGE gradient gel (4-15%). For the detection of endogenous PRMT-2 interaction with RB, MEFs were lysed with WCL buffer (50 mM Hepes, pH 7.8, 400 mM NaCl, 2 mM EDTA, 1 mM DTT, 0.2% NP40, 10% Glycerol, 20 mM α-glycerophosphate, 5 mM NaF, 0.1 mM NaVO4, and 1× protease inhibitor mix). Then, 1 mg of whole cell extracts were incubated with HNE buffer without DTT and 3 μg of antibodies as indicated. The immune complexes were isolated using protein G beads, and washed four times with HNE buffer. The precipitated protein was boiled with SDS-loading buffer and resolved on SDS-PAGE. For immunoprecipitation of HA-tagged protein, transfected cells were lysed with RIPA buffer (phosphate buffer saline containing 1% NP40, 0.5% sodium deoxycholate, 0.1% SDS, and 1× Complete), and 100 μg of whole cell lysates were immunoprecipitated with anti-HA antibodies and washed in RIPA buffer. Western blot analysis was performed as described in Tanner et al. (1998). Circ Res, 82, 396-403.
To test whether PRMT family members interact with RB, S^35-labeled in vitro translated PRMT1, PRMT2, PRMT3, and PRMT4 (CARM1) were incubated with GST-RB fusion proteins or control GST, and co-precipitated labeled proteins were resolved by SDS-PAGE. […] An equal amount of GST-RB and GST were loaded in each lane, verified by Coomassie staining (FIG. 8B).

NF-κB = NF-κB luciferase reporter assay in 293T cells; type: cell-based, human; settings: 1 μg expression construct, 100 ng 5 κB luciferase reporter
Description: Cell culture, transfection, and reporter gene assays. The E1A-transformed, human kidney cell line, 293, and NIH-3T3 cells were maintained in Dulbecco's Modified Eagle Medium (DMEM) supplemented with 10% fetal calf serum and penicillin-streptomycin at 37° C. in 5% carbon dioxide in tissue culture grade Petri dishes. PRMT-2−/− mouse embryo fibroblasts (MEFs) and wild type MEFs were prepared from day 13.5 embryos and maintained in DMEM supplemented with 10% fetal calf serum. MEFs at passage 4 were used in this experiment. Lipofectamine Plus™ reagent (Boehringer Mannheim) was used to transfect both 293 and NIH-3T3 cells according to directions from the manufacturer. […] TNF-α stimulation of cells was done using recombinant TNF-α (200 U/ml) for 12 hours. […] CAT assays were performed essentially as described in Leung, K. & Nabel, G. J. Nature 333, 776-778 (1988). To analyze the κB-reporter activity in MEFs, cells were transfected with the reporter (2×kB-Luc) and PRL-TK vector (Promega) using FuGENE6 transfection reagent (Roche). Luciferase activity was analyzed by Dual-Luciferase Reporter Assay System (Promega).
To map the domains responsible for inhibition of HIV transcription, truncation and point mutations were made in PRMT2 (FIG. 1D) and co-transfected with an NF-κB reporter in 293T cells. PRMT2-A represents an alternatively spliced form of PRMT2 found in the expressed sequence tag (EST) database. This isoform contains the first 218 amino acids of PRMT2 and differs from full length PRMT2 by the absence of the less conserved COOH-terminal domain. PRMT2-N was generated by introducing a stop codon after amino acid 95 before the putative Ado-Met domain of PRMT2. To analyze the role of the Ado-Met domain further, another mutant, PRMT2-4A, was prepared in which 141ILDV144 (SEQ ID NO:5) in this region were altered to four consecutive alanines to compare the effects of point mutations in this highly conserved region.
The mechanism and site of action of PRMT2 in the NF-κB signaling pathway was further defined by co-transfection of PRMT2 and its mutants with different regulators in this pathway with an NF-κB reporter in 293T cells (FIG. 2D).

HIV-1 LTR = experiment: HIV-1 reporter transcription, transient co-transfection; type: cell-based, human; settings: 293T cells, co-transfection
Description: Cell culture, transfection, and reporter gene assays. The E1A-transformed, human kidney cell line, 293, and NIH-3T3 cells were maintained in Dulbecco's Modified Eagle Medium (DMEM) supplemented with 10% fetal calf serum and penicillin-streptomycin at 37° C. in 5% carbon dioxide in tissue culture grade Petri dishes. PRMT-2−/− mouse embryo fibroblasts (MEFs) and wild type MEFs were prepared from day 13.5 embryos and maintained in DMEM supplemented with 10% fetal calf serum. MEFs at passage 4 were used in this experiment. Lipofectamine Plus™ reagent (Boehringer Mannheim) was used to transfect both 293 and NIH-3T3 cells according to directions from the manufacturer. […] TNF-α stimulation of cells was done using recombinant TNF-α (200 U/ml) for 12 hours. Transfected cells were harvested at 36 hours, and CAT activity was assayed on 10 to 100 μg of protein from whole cell extracts. CAT assays were performed essentially as described in Leung, K. & Nabel, G. J. Nature 333, 776-778 (1988). To analyze the κB-reporter activity in MEFs, cells were transfected with the reporter (2×kB-Luc) and PRL-TK vector (Promega) using FuGENE6 transfection reagent (Roche). Luciferase activity was analyzed by Dual-Luciferase Reporter Assay System (Promega).
To determine whether PRMT-1, 2 or 3 could affect NF-κB function, their potential to regulate effects on transcription of the human immunodeficiency virus type 1 (HIV-1) was examined. Transient co-transfections were performed using PRMT1, PRMT2 and PRMT3 expression plasmids with an HIV-1 reporter plasmid in the human renal epithelial cell line, 293T.
To determine its dependence on NF-κB, human immunodeficiency virus type 1 (HIV-1) reporter plasmids with wild-type (WT) or mutant (ΔκB) sites were co-transfected transiently with control or PRMT2 expression plasmids in the different cell lines. […] The KB effect was dose-dependent and was also observed with other inducers of NF-κB, including phorbol […] (PMA) (FIG. 2B, right panel).

Molecule | binding to RB (RB) | NF-κB activity (NF-κB) | effect on transcription of the HIV-1 reporter plasmid (HIV-1 LTR)
B1 | bound GST-RB at levels comparable to that of wild type PRMT2 |  | 
B2 | did not bind GST-RB |  | 
B3 |  | inhibited NF-κB activity | 
B4 | do not bind RB |  | did not affect transcription
